Patent publication US12491161B2, “Single vial vaccine formulations” (priority 2013, dated 2025)

How the values were obtained:
[1] = Emulsion particle size and polydispersity by dynamic light scattering (DLS); type: physicochemical
Protocol: Emulsion particle size, polydispersity (PdI), and zeta potential were evaluated using dynamic light scattering (DLS) on a Malvern (Worcestershire, UK) Nano-ZS. Measurements were performed generally as previously described (Fox et al., 2011, Pharmaceutical Development and Technology, 16(5):511-519). Briefly, all DLS size measurements were performed in 10^−2 dilutions into 20 nm filtered water (described above) and evaluated in triplicate on single aliquots. For zeta-potential measurements, the same aliquot was evaluated using triplicate measurements and an automatic software determination of the measurement duration between 20 and 40 runs.
Particle size, polydispersity, and zeta potential measurements were made as described previously (Fox et al., 2008, Colloids and Surfaces B: Biointerfaces, 65:98-105) using a Malvern (Worcestershire, UK) Nano-ZS after 100 times dilution into ultrapure water filtered through a 20 nm Whatman (Maidstone, Kent, UK) Anotop plus filter. Nanoparticle tracking analysis was performed with a NanoSight LM10 (Amesbury, UK) with a 405 nm laser and a Hamamatsu Orca Flash 2.8 CMOS camera (Hamamatsu, JP). Samples were diluted 1:105 in 20-nm filtered ultrapure water in three steps. Each sample was diluted and analyzed four times, independently, to account for dilution error. Ninety seconds of video were recorded for each sample with optimized shutter and gain settings. The camera histogram gating was adjusted to maximize sensitivity. Data analysis was performed using NanoSight NTA 2.3 software (Wiltshire, UK) in standard mode.

[2] = Stability under continuous cold-chain maintenance; type: physicochemical; details: 4° C.

B1: ID93: recombinant tandem fusion protein antigen of Mtb Rv3619, Rv1813, Rv3620 and Rv2608 (SEQ ID NO: 1 or 2) (protein)
chain: MGSSHHHHHHSSGLVPRGSHMTINYQFGDVDAHGAMIRAQAGSLEAEHQAIISDVLTASDFWGGAGSAACQGFITQLGRNFQVIYEQANAHGQKVQAAGNNMAQTDSAVGSSWAGTHLANGSMSEVMMSEIAGLPIPPIIHYGAIAYAPSGASGKAWHQRTPARAEQVALEKCGDKTCKVVSRFTRCGAVAYNGSKYQGGTGLTRRAAEDDAVNRLEGGRIVNWACNELMTSRFMTDPHAMRDMAGRFEVHAQTVEDEARRMWASAQNISGAGWSGMAEATSLDTMTQMNQAFRNIVNMLHGVRDGLVRDANNYEQQEQASQQILSSVDINFAVLPPEVNSARIFAGAGLGPMLAAASAWDGLAEELHAAAGSFASVTTGLAGDAWHGPASLAMTRAASPYVGWLNTAAGQAAQAAGQARLAASAFEATLAATVSPAMVAANRTRLASLVAANLLGQNAPAIAAAEAEYEQIWAQDVAAMFGYHSAASAVATQLAPIQEGLQQQLQNVLAQLASGNLGSGNVGVGNIGNDNIGNANIGFGNRGDANIGIGNIGDRNLGIGNTGNWNIGIGITGNGQIGFGKPANPDVLVVGNGGPGVTALVMGGTDSLLPLPNIPLLEYAARFITPVHPGYTATFLETPSQFFPFTGLNSLTYDVSVAQGVTNLHTAIMAQLAAGNEVVVFGTSQSATIATFEMRYLQSLPAHLRPGLDELSFTLTGNPNRPDGGILTRFGFSIPQLGFTLSGATPADAYPTVDYAFQYDGVNDFPKYPLNVFATANAIAGILFLHSGLIALPPDLASGVVQPVSSPDVLTTYILLPSQDLPLLVPLRAIPLLGNPLADLIQPDLRVLVELGYDRTAHQDVPSPFGLFPDVDWAEVAADLQQGAVQGVNDALSGLGLPPPWQPALPRLFST
[1]; 50° C. for 30 days
  effect of heat stress on particle size: reduced the average particle size observed; however, this was not statistically significant
[1]; 50° C. for 30 days, liquid or lyophilized formats
  effect of heat stress on polydispersity: did not affect the polydispersity
[1]; unstressed
  particle size (Z-average diameter): approximately 70 nm
[2]
  stability under continuous cold-chain maintenance: stable for more than a year
